Measurements from patent publication US20230272119A1 (MARENGO THERAPEUTICS, published 2023).

Assays:
[1] = target: T1, α-CTLA4 heavy-hCHIg_Knob_Cys (SEQ ID NO: 168) (Homo sapiens (Human), UniProt P0DOX5 1-449 = IgG part); test: intact MS of papain-cleaved multispecific molecule 3; Fab 'Kappa heavy chain/lambda light chain' not observed
T1 construct: full heavy chain, human Fc knob; Fab analysed after papain cleavage in the MS assay; germline VH3-30*01; also called HCP2 of multispecific molecules 3, 4, 5, 9

[2] = target: T2, α-IL12β heavy-hCHIg_Hole_Cys (SEQ ID NO: 170) (Homo sapiens (Human), UniProt P0DOX5 1-449 = IgG part); test: intact MS of papain-cleaved multispecific molecule 3; Fab of this pairing observed (observed mass, Da)
T2 construct: full heavy chain, human Fc hole; Fab analysed after papain cleavage in the MS assay; germline VH3-33*01; also called HCP1 of multispecific molecules 3 and 9

[3] = target: T3, α-death receptor 5 heavy-LgBiT (SEQ ID NO: 137); test: NanoBiT, HC-LgBiT:LC-SmBiT:competing LC 1:1:1; competing kappa LC m36 (SEQ ID NO: 127)
T3 construct: VH-CH1-linker-LgBiT; germline VH3-20*01

[4] = target: T3, α-death receptor 5 heavy-LgBiT (SEQ ID …); test: NanoBiT, HC-LgBiT:LC-SmBiT:competing LC 1:1:1; competing kappa LC m18 (SEQ ID NO: 109)
[5] = target: T3, α-death receptor 5 heavy-LgBiT (SEQ ID …); test: NanoBiT, HC-LgBiT:LC-SmBiT:competing LC 1:1:1; competing kappa LC m12 (SEQ ID NO: 103)
[6] = target: T3, α-death receptor 5 heavy-LgBiT (SEQ ID …); test: NanoBiT, HC-LgBiT:LC-SmBiT:competing LC 1:1:1; competing kappa LC m33 (SEQ ID NO: 124)
[7] = target: T4, α-IL23 heavy-LgBiT (SEQ ID NO: 140); test: NanoBiT, HC-LgBiT:LC-SmBiT:competing LC 1:1:1; competing kappa LC m6 (SEQ ID NO: 97)
T4 construct: VH-CH1-linker-LgBiT; germline VH5-51*01

[8] = target: T4, α-IL23 heavy-LgBiT (SEQ ID NO: 140); test: NanoBiT, HC-LgBiT:LC-SmBiT:competing LC 1:1:1; competing kappa LC m33 (SEQ ID NO: 124)
[9] = target: T4, α-IL23 heavy-LgBiT (SEQ ID NO: 140); test: NanoBiT, HC-LgBiT:LC-SmBiT:competing LC 1:1:1; competing kappa LC m27 (SEQ ID NO: 118)
[10] = target: T4, α-IL23 heavy-LgBiT (SEQ ID NO: 140); test: NanoBiT, HC-LgBiT:LC-SmBiT:competing LC 1:1:1; competing kappa LC m24 (SEQ ID NO: 115)
[11] = target: T5, α-complement C5 heavy-LgBiT (SEQ ID NO: 152); test: NanoBiT, HC-LgBiT:LC-SmBiT:competing LC 1:1:1; competing kappa LC m42 (SEQ ID NO: 133)
T5 construct: VH-CH1-linker-LgBiT; germline VH1-69*01

[12] = target: T6, α-CCR2 heavy-LgBiT (SEQ ID NO: 155); test: as above
T6 construct: VH-CH1-linker-LgBiT; germline VH1-2*01

[13] = target: T6, α-CCR2 heavy-LgBiT (SEQ ID NO: 155); test: NanoBiT, HC-LgBiT:LC-SmBiT:competing LC 1:1:1; competing kappa LC m36 (SEQ ID NO: 127)
[14] = target: T6, α-CCR2 heavy-LgBiT (SEQ ID NO: 155); test: NanoBiT, HC-LgBiT:LC-SmBiT:competing LC 1:1:1; competing kappa LC m33 (SEQ ID NO: 124)
[15] = target: T6, α-CCR2 heavy-LgBiT (SEQ ID NO: 155); test: NanoBiT, HC-LgBiT:LC-SmBiT:competing LC 1:1:1; competing kappa LC m24 (SEQ ID NO: 115)
[16] = target: T7, α-CCR2 heavy-LgBiT (SEQ ID NO: 158); test: NanoBiT, HC-LgBiT:LC-SmBiT:competing LC 1:1:1; competing kappa LC m42 (SEQ ID NO: 133)
T7 construct: VH-CH1-linker-LgBiT; germline VH3-7*01

[17] = target: T7, α-CCR2 heavy-LgBiT (SEQ ID NO: 158); test: NanoBiT, HC-LgBiT:LC-SmBiT:competing LC 1:1:1; competing kappa LC m18 (SEQ ID NO: 109)
[18] = target: T7, α-CCR2 heavy-LgBiT (SEQ ID NO: 158); test: NanoBiT, HC-LgBiT:LC-SmBiT:competing LC 1:1:1; competing kappa LC m15 (SEQ ID NO: 106)
[19] = target: T7, α-CCR2 heavy-LgBiT (SEQ ID NO: 158); test: NanoBiT, HC-LgBiT:LC-SmBiT:competing LC 1:1:1; competing kappa LC m9 (SEQ ID NO: 100)
[20] = target: T7, α-CCR2 heavy-LgBiT (SEQ ID NO: 158); test: NanoBiT, HC-LgBiT:LC-SmBiT:competing LC 1:1:1; competing kappa LC m6 (SEQ ID NO: 97)
[21] = target: T7, α-CCR2 heavy-LgBiT (SEQ ID NO: 158); test: NanoBiT, HC-LgBiT:LC-SmBiT:competing LC 1:1:1; competing kappa LC m12 (SEQ ID NO: 103)
[22] = target: T7, α-CCR2 heavy-LgBiT (SEQ ID NO: 158); test: NanoBiT, HC-LgBiT:LC-SmBiT:competing LC 1:1:1; competing kappa LC m24 (SEQ ID NO: 115)
[23] = target: T8, α-HER3 heavy-LgBiT (SEQ ID NO: 143); test: NanoBiT, HC-LgBiT:LC-SmBiT:competing LC 1:1:1; competing kappa LC m42 (SEQ ID NO: 133)
T8 construct: VH-CH1-linker-LgBiT; germline VH3-9*01

[24] = target: T8, α-HER3 heavy-LgBiT (SEQ ID NO: 143); test: NanoBiT, HC-LgBiT:LC-SmBiT:competing LC 1:1:1; competing kappa LC m36 (SEQ ID NO: 127)
[25] = target: T8, α-HER3 heavy-LgBiT (SEQ ID NO: 143); test: NanoBiT, HC-LgBiT:LC-SmBiT:competing LC 1:1:1; competing kappa LC m15 (SEQ ID NO: 106)
[26] = target: T8, α-HER3 heavy-LgBiT (SEQ ID NO: 143); test: NanoBiT, HC-LgBiT:LC-SmBiT:competing LC 1:1:1; competing kappa LC m21 (SEQ ID NO: 112)
[27] = target: T8, α-HER3 heavy-LgBiT (SEQ ID NO: 143); test: NanoBiT, HC-LgBiT:LC-SmBiT:competing LC 1:1:1; competing kappa LC m6 (SEQ ID NO: 97)
[28] = target: T8, α-HER3 heavy-LgBiT (SEQ ID NO: 143); test: NanoBiT, HC-LgBiT:LC-SmBiT:competing LC 1:1:1; competing kappa LC m12 (SEQ ID NO: 103)
[29] = target: T8, α-HER3 heavy-LgBiT (SEQ ID NO: 143); test: NanoBiT, HC-LgBiT:LC-SmBiT:competing LC 1:1:1; competing kappa LC m33 (SEQ ID NO: 124)
[30] = target: T8, α-HER3 heavy-LgBiT (SEQ ID NO: 143); test: NanoBiT, HC-LgBiT:LC-SmBiT:competing LC 1:1:1; competing kappa LC m27 (SEQ ID NO: 118)
[31] = target: T8, α-HER3 heavy-LgBiT (SEQ ID NO: 143); test: NanoBiT, HC-LgBiT:LC-SmBiT:competing LC 1:1:1; competing kappa LC m24 (SEQ ID NO: 115)

B1: α-IL12β light (SEQ ID NO: 163) (other)
light: QSVLTQPPSVSGAPGQRVTISCSGSRSNIGSNTVKWYQQLPGTAPKLLIYYNDQRPSGVPDRFSGSKSGTSASLAITGLQAEDEADYYCQSYDRYTHPALLFGTGTKVTVLGQPKANPTVTLFPPSSEELQANKATLVCLISDFYPGAVTVAWKADGSPVKAGVETTKPSKQSNNKYAASSYLSLTPEQWKSHRSYSCQVTHEGSTVEKTVAPTECS
notes: unmodified lambda light chain; germline Vl1-44*01; also called LLCP of multispecific molecule 3
- binding result [1]: no binding
- binding result [2]: binds

B2: α-death receptor 5 light-SmBiT (SEQ ID NO: 138) (other)
light: SSELTQDPAVSVALGQTVRITCSGDSLRSYYASWYQQKPGQAPVLVIYGANNRPSGIPDRFSGSSSGNTASLTITGAQAEDEADYYCNSADSSGNHVVFGGGTKLTVLGQPKANPTVTLFPPSSEELQANKATLVCLISDFYPGAVTVAWKADGSPVKAGVETTKPSKQSNNKYAASSYLSLTPEQWKSHRSYSCQVTHEGSTVEKTVAPTECSGSSGGGGSGGGGSSGGVTGYRLFEEIL
notes: lambda light chain-linker-SmBiT; germline Vl3-19*01
- Percent pairing [3]: 95%
- Percent pairing [4]: 100%
- Percent pairing [5]: 100%
- Percent pairing [6]: 100%

B3: α-IL23 light-SmBiT (SEQ ID NO: 141) (other)
light: QSVLTQPPSVSGAPGQRVTISCTGSSSNIGSGYDVHWYQQLPGTAPKLLIYGNSKRPSGVPDRFSGSKSGTSASLAITGLQSEDEADYYCASWTDGLSLVVFGGGTKLTVLGQPKANPTVTLFPPSSEELQANKATLVCLISDFYPGAVTVAWKADGSPVKAGVETTKPSKQSNNKYAASSYLSLTPEQWKSHRSYSCQVTHEGSTVEKTVAPTECSGSSGGGGSGGGGSSGGVTGYRLFEEIL
notes: lambda light chain-linker-SmBiT; germline Vl1-40*01
- Percent pairing [7]: 96%
- Percent pairing [8]: 100%
- Percent pairing [9]: 91%
- Percent pairing [10]: 93%

B4: α-complement C5 light-SmBiT (SEQ ID NO: 153) (other)
light: SYELTQPLSVSVALGQTARITCSGDSIPNYYVYWYQQKPGQAPVLVIYDDSNRPSGIPERFSGSNSGNTATLTISRAQAGDEADYYCQSFDSSLNAEVFGGGTKLTVLGQPKANPTVTLFPPSSEELQANKATLVCLISDFYPGAVTVAWKADGSPVKAGVETTKPSKQSNNKYAASSYLSLTPEQWKSHRSYSCQVTHEGSTVEKTVAPTECSGSSGGGGSGGGGSSGGVTGYRLFEEIL
notes: lambda light chain-linker-SmBiT; germline Vl3-9*01
- Percent pairing [11]: 79%

B5: α-CCR2 light-SmBiT (SEQ ID NO: 156) (other)
light: LPVLTQPPSVSKGLRQTATLTCTGNSNNVGNQGAAWLQQHQGQPPKLLSYRNHNRPSGVSERFSPSRSGDTSSLTITGLQPEDEADYYCLAWDSSLRAFVFGTGTKLTVLGQPKANPTVTLFPPSSEELQANKATLVCLISDFYPGAVTVAWKADGSPVKAGVETTKPSKQSNNKYAASSYLSLTPEQWKSHRSYSCQVTHEGSTVEKTVAPTECSGSSGGGGSGGGGSSGGVTGYRLFEEIL
notes: lambda light chain-linker-SmBiT; germline Vl10-54*01
- Percent pairing [12]: 100%
- Percent pairing [13]: 77%
- Percent pairing [14]: 80%
- Percent pairing [15]: 90%

B6: α-CCR2 light-SmBiT (SEQ ID NO: 159) (other)
light: QAGLTQPPSVSKGLRQTATLTCTGNSNNVGNQGAAWLQQHQGHPPKLLFYRNNNRASGISERLSASRSGNTASLTITGLQPEDEADYYCLTWDSSLSVVVFGGGTKLTVLGQPKANPTVTLFPPSSEELQANKATLVCLISDFYPGAVTVAWKADGSPVKAGVETTKPSKQSNNKYAASSYLSLTPEQWKSHRSYSCQVTHEGSTVEKTVAPTECSGSSGGGGSGGGGSSGGVTGYRLFEEIL
notes: as for B5
- Percent pairing [16]: 99%
- Percent pairing [17]: 95%
- Percent pairing [18]: 98%
- Percent pairing [19]: 99%
- Percent pairing [20]: 89%
- Percent pairing [21]: 100%
- Percent pairing [22]: 97%

B7: α-HER3 light-SmBiT (SEQ ID NO: 144) (other)
light: SYELTQDPAVSVALGQTVRITCQGDSLRSYYASWYQQKPGQAPVLVIYGKNNRPSGIPDRFSGSTSGNSASLTITGAQAEDEADYYCNSRDSPGNQWVFGGGTKVTVLGGQPKANPTVTLFPPSSEELQANKATLVCLISDFYPGAVTVAWKADGSPVKAGVETTKPSKQSNNKYAASSYLSLTPEQWKSHRSYSCQVTHEGSTVEKTVAPTECSGSSGGGGSGGGGSSGGVTGYRLFEEIL
notes: as for B2
- Percent pairing [23]: 100%
- Percent pairing [24]: 100%
- Percent pairing [25]: 93%
- Percent pairing [26]: 100%
- Percent pairing [27]: 100%
- Percent pairing [28]: 80%
- Percent pairing [29]: 100%
- Percent pairing [30]: 90%
- Percent pairing [31]: 86%
